What was measured:
Experiment in all cases: ELISA: SEAP-His proteins (1 nM) captured on anti-6-His antibody, antibody A 10 µg/mL with human IgG 100 µg/mL, HRP anti-mouse IgG, OD450 as % of human EphA4-SEAP-His
[1] = biological target: T1, human EphA1 extracellular region-SEAP-His protein (human, UniProt P21709 26-547)
T1 construct: extracellular domain; also called Eph receptor extracellular region-SEAP-His protein; not shown: secretory alkaline phosphatase (SEAP); histidine tag
T1 sequence (looked up): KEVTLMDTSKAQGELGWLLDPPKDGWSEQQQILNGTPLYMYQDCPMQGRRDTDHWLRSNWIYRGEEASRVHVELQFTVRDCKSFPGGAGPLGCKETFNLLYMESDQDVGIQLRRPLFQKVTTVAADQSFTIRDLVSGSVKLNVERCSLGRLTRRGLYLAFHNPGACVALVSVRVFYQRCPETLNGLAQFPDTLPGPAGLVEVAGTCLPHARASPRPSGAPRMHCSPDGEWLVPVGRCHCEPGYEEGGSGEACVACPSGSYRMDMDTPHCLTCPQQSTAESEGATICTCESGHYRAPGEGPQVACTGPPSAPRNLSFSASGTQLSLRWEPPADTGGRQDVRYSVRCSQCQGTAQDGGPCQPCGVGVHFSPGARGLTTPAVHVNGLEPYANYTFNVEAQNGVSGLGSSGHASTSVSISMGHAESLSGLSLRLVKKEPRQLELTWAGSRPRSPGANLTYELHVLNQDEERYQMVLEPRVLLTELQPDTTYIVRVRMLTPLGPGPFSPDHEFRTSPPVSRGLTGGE
Description: (§1) Rabbit anti-6-His antibodies (Bethel Laboratories) were coated onto the wells of a 96-well plate (Nunc). After incubating at 4° C. overnight, the wells were blocked at room temperature for 1 hour by 1% Block Ace (DS Pharma Biomedical). After washing 3 times with 0.05% Tween 20/PBS (Thermo […]), each Eph receptor of human extracellular region-SEAP-His protein (final concentration 1 nM) was seeded into each well, and incubated at room temperature for 1 hour. After washing 3 times, human IgG solution (100 μg/mL, Mitsubishi Pharma Corporation) and antibody A (10 μg/mL) were supplemented to the wells, and incubated at room temperature for 1 hour. Horseradish peroxidase-labeled donkey anti-mouse IgG antibody (Jackson ImmunoResearch Laboratories) was added, and incubated at room, temperature for 1 hour. After washing 3 times, TMBZ (3,3′,5,5′-tetramethylbenzidine, Sigma) solution was added to the wells, and upon confirmation of modest coloring, an equal amount of quenching solution (1 N H₂SO₄, Wako Pure Chemicals) was added to the wells, and absorbance at 450 nm was read by a microplate reader (PerkinElmer).

[2] = biological target: T2, human EphA2 extracellular region-SEAP-His protein (human, UniProt P29317 24-537)
T2 construct: extracellular domain; also called Eph receptor extracellular region-SEAP-His protein; not shown: secretory alkaline phosphatase (SEAP); histidine tag
Description: as §1

[3] = biological target: T3, human EphA5 extracellular region-SEAP-His protein (human, UniProt P54756 25-573)
T3 construct: extracellular domain; also called Eph receptor extracellular region-SEAP-His protein; not shown: secretory alkaline phosphatase (SEAP); histidine tag
Description: as §1

[4] = biological target: T4, human EphB2 extracellular region-SEAP-His protein (human, UniProt P29323 19-543)
T4 construct: extracellular domain; also called Eph receptor extracellular region-SEAP-His protein; not shown: secretory alkaline phosphatase (SEAP); histidine tag
T4 sequence (looked up): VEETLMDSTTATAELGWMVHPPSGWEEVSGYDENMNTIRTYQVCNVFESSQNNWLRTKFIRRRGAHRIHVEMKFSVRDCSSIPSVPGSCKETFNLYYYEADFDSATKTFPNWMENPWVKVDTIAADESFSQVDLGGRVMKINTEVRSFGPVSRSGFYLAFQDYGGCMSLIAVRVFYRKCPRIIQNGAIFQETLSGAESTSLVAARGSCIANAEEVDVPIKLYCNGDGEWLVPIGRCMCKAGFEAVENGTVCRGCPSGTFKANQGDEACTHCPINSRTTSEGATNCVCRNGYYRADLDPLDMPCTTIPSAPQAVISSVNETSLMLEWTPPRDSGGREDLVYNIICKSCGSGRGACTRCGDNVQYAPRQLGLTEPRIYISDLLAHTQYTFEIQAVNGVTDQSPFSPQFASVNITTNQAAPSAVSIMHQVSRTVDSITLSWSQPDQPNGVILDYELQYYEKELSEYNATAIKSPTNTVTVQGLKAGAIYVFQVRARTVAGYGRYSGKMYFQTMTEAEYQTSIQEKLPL
Description: as §1

[5] = biological target: T5, human EphB4 extracellular region-SEAP-His protein (human, UniProt P54760 16-539)
T5 construct: extracellular domain; also called Eph receptor extracellular region-SEAP-His protein; not shown: secretory alkaline phosphatase (SEAP); histidine tag
T5 sequence (looked up): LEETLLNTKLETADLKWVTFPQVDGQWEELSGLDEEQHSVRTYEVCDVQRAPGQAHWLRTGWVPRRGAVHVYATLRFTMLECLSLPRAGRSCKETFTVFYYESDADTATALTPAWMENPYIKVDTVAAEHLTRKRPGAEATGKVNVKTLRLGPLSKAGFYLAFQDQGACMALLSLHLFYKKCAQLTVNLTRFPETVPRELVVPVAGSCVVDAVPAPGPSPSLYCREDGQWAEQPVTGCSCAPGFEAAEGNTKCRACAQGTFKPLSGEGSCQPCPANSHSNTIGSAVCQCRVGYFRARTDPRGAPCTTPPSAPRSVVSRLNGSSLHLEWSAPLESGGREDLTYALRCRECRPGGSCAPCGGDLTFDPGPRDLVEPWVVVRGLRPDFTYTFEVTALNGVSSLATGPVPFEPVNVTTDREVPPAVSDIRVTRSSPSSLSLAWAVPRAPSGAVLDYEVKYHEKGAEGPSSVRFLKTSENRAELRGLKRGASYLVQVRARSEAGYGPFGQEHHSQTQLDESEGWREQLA
Description: as §1

Measured: binding result

T2 sequence (P29317 24-537): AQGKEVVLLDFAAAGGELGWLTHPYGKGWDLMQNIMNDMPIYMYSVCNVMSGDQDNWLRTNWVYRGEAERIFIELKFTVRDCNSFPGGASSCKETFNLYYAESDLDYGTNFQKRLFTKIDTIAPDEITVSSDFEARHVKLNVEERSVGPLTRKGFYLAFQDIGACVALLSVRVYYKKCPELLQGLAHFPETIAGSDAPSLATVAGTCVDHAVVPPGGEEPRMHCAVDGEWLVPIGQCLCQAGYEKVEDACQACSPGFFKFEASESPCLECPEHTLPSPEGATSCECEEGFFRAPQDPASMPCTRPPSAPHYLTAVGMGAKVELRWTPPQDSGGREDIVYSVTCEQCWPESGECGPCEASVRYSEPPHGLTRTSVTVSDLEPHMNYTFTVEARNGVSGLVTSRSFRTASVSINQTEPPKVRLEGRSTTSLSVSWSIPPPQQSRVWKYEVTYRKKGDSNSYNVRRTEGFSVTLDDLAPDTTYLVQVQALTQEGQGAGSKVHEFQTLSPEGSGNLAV
T3 sequence (P54756 25-573): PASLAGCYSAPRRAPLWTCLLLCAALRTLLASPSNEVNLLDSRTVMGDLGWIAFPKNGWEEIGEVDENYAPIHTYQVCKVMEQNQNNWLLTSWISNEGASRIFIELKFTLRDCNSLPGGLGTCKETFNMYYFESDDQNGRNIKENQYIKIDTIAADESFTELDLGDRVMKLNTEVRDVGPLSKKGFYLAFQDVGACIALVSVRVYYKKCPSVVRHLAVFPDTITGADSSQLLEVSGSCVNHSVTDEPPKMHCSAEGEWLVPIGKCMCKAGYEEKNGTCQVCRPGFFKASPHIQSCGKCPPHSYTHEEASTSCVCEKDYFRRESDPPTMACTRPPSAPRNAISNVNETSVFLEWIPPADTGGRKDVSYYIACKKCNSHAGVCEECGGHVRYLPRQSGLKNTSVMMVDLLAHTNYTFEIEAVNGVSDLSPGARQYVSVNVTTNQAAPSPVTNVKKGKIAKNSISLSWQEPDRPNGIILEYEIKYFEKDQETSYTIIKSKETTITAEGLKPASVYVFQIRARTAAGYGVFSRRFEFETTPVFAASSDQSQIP

B1: mouse anti-EphA4 monoclonal antibody (antibody A) (antibody, mouse IgG1, kappa, V domains shown)
VH: QVQLKQSGPSLVQPSQSLSITCTVSGFSLTRYGVHWVRQSPGKGLEWLGVIWRGGSTDYNAAFMSRLSITKDNSKSQVFFKMNSLQADDTAIYYCAKESLFGVYYDYGYYSMDYWGQGTSVTVSS
VL: DIQMTQSPSSLSASLGERVSLTCRASQEISGYLSWLQQKPDGTIKRLIYAASTLDSGVPKRFSGSRSGSDYSLTISSLESEDFADYYCLQYASYPLTFGAGTKLELKR
notes: purified from hybridoma supernatant
no binding (tested: 10 µg/mL): all assays above

Reference: patent US20240010735A1 (EISAI R AND D MANAGEMENT, published 2024)
